Measurements published in US20230406961A1 (DEUTSCHES KREBSFORSCHUNGSZENTRUM STIFTUNG DES FFENTLICHEN …, published 2023).

B1: bispecific endoglinxCD28 antibody in the IgGsc format, BiCo variant Hc-L (bispecific antibody)
heavy: QVQLVQSGAEVKKPGASVKVSCKASGYTFTSYWMHWVRQAPGQGLEWIGNIYPGSGSTFYDEKFKGRATLTVDTSISTAYMELSRLRSDDTAVYYCTRRNYVTGFDYWGQGTTVTVSSASTKGPSVFPLAPSSKSTSGGTAALGCLVKDYFPEPVTVSWNSGALTSGVHTFPAVLQSSGLYSLSSVVTVPSSSLGTQTYICNVNHKPSNTKVDKKVEPKSCDKTHTCPPCPAPPVAGPSVFLFPPKPKDTLMISRTPEVTCVVVGVSHEDPEVKFNWYVDGVEVHNAKTKPREEQYNSTYRVVSVLTVLHQDWLNGKEYKCKVSNKQLPSPIEKTISKAKGQPREPQVYTLPPSRDELTKNQVSLTCLVKGFYPSDIAVEWESNGQPENNYKTTPPVLDSDGSFFLYSKLTVDKSRWQQGNVFSCSVMHEALHNHYTQKSLSLSPGKASQVQLVESGGGVVQPGRSLRLSCAASGFSLSDYGVHWVRQAPGKGLEWLGVIWAGGGTNYNSALMSRKTISKDNSKNTVYLQMNSLRAEDTAVYYCARDKGYSYYYSMDYWGQGTTVTVSSGGGGSGGGGSGGGGSDIQMTQSPSTLSASVGDRVTIICRASESVEYYVTSLMQWYQQKPGKAPKLLIFAASNVESGVPSRFSGSGSGTEFTLTISSLQPDDFATYYCQQSRKVPYTFGQGTKLEIKR
light: DIQLTQSPSFLSASVGDRVTITCKSSQSVLYSSNQKNYLAWYQQKPGKAPKLLIYWASTRESGVPSRFSGSGSGTEFTLTISSLQPEDFATYYCHQYLSSYTFGQGTKLEIKRTVAAPSVFIFPPSDEQLKSGTASVVCLLNNFYPREAKVQWKVDNALQSGNSQESVTEQDSKDSTYSLSSTLTLSKADYEKHKVYACEVTHQGLSSPVTKSFNRGEC
notes: Humanized endoglin IgG (K-ro22-2 / K-ro22-6), FcKO, with the CD28 scFv (9.3-8, Vh-Vl) fused to the C-terminus of the heavy chain without the long linker
B2: bispecific endoglinxCD28 antibody in the IgGsc format, BiCo variant Lc-L (bispecific antibody)
heavy: QVQLVQSGAEVKKPGASVKVSCKASGYTFTSYWMHWVRQAPGQGLEWIGNIYPGSGSTFYDEKFKGRATLTVDTSISTAYMELSRLRSDDTAVYYCTRRNYVTGFDYWGQGTTVTVSSASTKGPSVFPLAPSSKSTSGGTAALGCLVKDYFPEPVTVSWNSGALTSGVHTFPAVLQSSGLYSLSSVVTVPSSSLGTQTYICNVNHKPSNTKVDKKVEPKSCDKTHTCPPCPAPPVAGPSVFLFPPKPKDTLMISRTPEVTCVVVGVSHEDPEVKFNWYVDGVEVHNAKTKPREEQYNSTYRVVSVLTVLHQDWLNGKEYKCKVSNKQLPSPIEKTISKAKGQPREPQVYTLPPSRDELTKNQVSLTCLVKGFYPSDIAVEWESNGQPENNYKTTPPVLDSDGSFFLYSKLTVDKSRWQQGNVFSCSVMHEALHNHYTQKSLSLSPGK
light: DIQLTQSPSFLSASVGDRVTITCKSSQSVLYSSNQKNYLAWYQQKPGKAPKLLIYWASTRESGVPSRFSGSGSGTEFTLTISSLQPEDFATYYCHQYLSSYTFGQGTKLEIKRTVAAPSVFIFPPSDEQLKSGTASVVCLLNNFYPREAKVQWKVDNALQSGNSQESVTEQDSKDSTYSLSSTLTLSKADYEKHKVYACEVTHQGLSSPVTKSFNRGECASQVQLVESGGGVVQPGRSLRLSCAASGFSLSDYGVHWVRQAPGKGLEWLGVIWAGGGTNYNSALMSRKTISKDNSKNTVYLQMNSLRAEDTAVYYCARDKGYSYYYSMDYWGQGTTVTVSSGGGGSGGGGSGGGGSDIQMTQSPSTLSASVGDRVTIICRASESVEYYVTSLMQWYQQKPGKAPKLLIFAASNVESGVPSRFSGSGSGTEFTLTISSLQPDDFATYYCQQSRKVPYTFGQGTKLEIKR
notes: Humanized endoglin IgG, FcKO heavy chain, with the CD28 scFv (9.3-8, Vh-Vl) fused to the C-terminus of the kappa light chain without the long linker
B3: bispecific endoglinxCD28 antibody in the IgGsc format, BiCo variant Lc+L (bispecific antibody)
heavy: B2 heavy
light: DIQLTQSPSFLSASVGDRVTITCKSSQSVLYSSNQKNYLAWYQQKPGKAPKLLIYWASTRESGVPSRFSGSGSGTEFTLTISSLQPEDFATYYCHQYLSSYTFGQGTKLEIKRTVAAPSVFIFPPSDEQLKSGTASVVCLLNNFYPREAKVQWKVDNALQSGNSQESVTEQDSKDSTYSLSSTLTLSKADYEKHKVYACEVTHQGLSSPVTKSFNRGECASGGGGSGGGGSGGGGSQVQLVESGGGVVQPGRSLRLSCAASGFSLSDYGVHWVRQAPGKGLEWLGVIWAGGGTNYNSALMSRKTISKDNSKNTVYLQMNSLRAEDTAVYYCARDKGYSYYYSMDYWGQGTTVTVSSGGGGSGGGGSGGGGSDIQMTQSPSTLSASVGDRVTIICRASESVEYYVTSLMQWYQQKPGKAPKLLIFAASNVESGVPSRFSGSGSGTEFTLTISSLQPDDFATYYCQQSRKVPYTFGQGTKLEIKR
notes: Humanized endoglin IgG, FcKO heavy chain, with the CD28 scFv (9.3-8, Vh-Vl) fused to the C-terminus of the kappa light chain through a (GGGGS)3 linker; also called BiCo-1; Bico1

What follows are binders tested against T1, CD28 expressed on human CD4+ and CD8+ T cells (human, UniProt P10747 19-220) (assay: flow cytometry after incubation of PBMC with the constructs).
T1 construct: whole, on cells; also called T-cell-specific surface glycoprotein CD28
Protocol: Binding of the variants to normal human T cells was determined after incubation of PBMC with the respective constructs and subsequent analysis by flow cytometry

Question: Does B1 bind?
Answer: binds

Question: Does B2 bind?
Answer: binds

Question: Does B3 bind?
Answer: binds
